Assay results taken from PMC11623929.

Target: WDR5-Luc-FKBP12

VHL-FRB (from UniProt P42345 2019-2112) gave a decrease of luciferase activity of the WDR5 fusion in HEK293 cells, rapamycin overnight, 10- or 100-fold excess of the VHL-FRB plasmid (bridged by rapamycin) of 50.2%.
